Molecular target: human claudin 18.2 (CLDN18.2) (human)
Test: cell-based or functional assay

**Q.** What does the source list for IgG (Control) (antibody)?
**A.** Fluorescence, pHAb internalization on MKN45-CLDN18.2 cells, 20 nM antibody, normalized by DAR: 854; Fluorescence, pHAb internalization on MKN45-CLDN18.2 cells, 100 nM antibody, normalized by DAR: 2700

Source: patent publication US20230330253A1
